Measurements as given in paper PMC6066219 (PLoS ONE, 2018).
Marks after values point to notes of the source that are not given here. Starred links: 1 amine or outer side, 2 acyl side, 3 side chain; linkers in the order of their positions; H or OH if unused. Positions of bridges follow the written chain, without caps; N, C: chain ends. Non-standard residues stand in square brackets, D forms with d. Residues, ends and D or L forms follow the SMILES beside them. Chains are numbered I, II in the order given. X1 = CC1=CC(=O)N(O)CCCC(NC(=O)CCN2C(=O)CC([*:3])C2=O)C(=O)OCCC(C)=CC(=O)N(O)CCCC(NC(=O)CCN2C(=O)CC([*:2])C2=O)C(=O)OCCC(C)=CC(=O)N(O)CCCC(NC(=O)CCN2C(=O)CC([*:1])C2=O)C(=O)OCC1; X2 = CC(=O)NC1CCCN(O)C(=O)C=C(C)CCOC(=O)C(NC(=O)CCN2C(=O)CC([*:1])C2=O)CCCN(O)C(=O)C=C(C)CCOC(=O)C(NC(=O)CCN2C(=O)CC([*:2])C2=O)CCCN(O)C(=O)C=C(C)CCOC1=O; Nle = CCCC[C@H](N)C(=O)O; Mpa = O=C(O)CCS

Legend:
CCK2 receptor = target: T1, CCK2 receptor (Homo sapiens, UniProt P32239); experiment: Receptor binding affinity studies (IC50) on whole A431-CCK2R cells vs 125I-[Leu15]-gastrin I; settings: natGa-labelled competitor, 125I-[Leu15]-Gastrin radioligand
T1 construct: expressed in transfected cells; host or cells: A431 human epidermoid carcinoma cells (A431-CCK2R), gift from Dr. L. Aloj
T1 sequence (P32239 1-447): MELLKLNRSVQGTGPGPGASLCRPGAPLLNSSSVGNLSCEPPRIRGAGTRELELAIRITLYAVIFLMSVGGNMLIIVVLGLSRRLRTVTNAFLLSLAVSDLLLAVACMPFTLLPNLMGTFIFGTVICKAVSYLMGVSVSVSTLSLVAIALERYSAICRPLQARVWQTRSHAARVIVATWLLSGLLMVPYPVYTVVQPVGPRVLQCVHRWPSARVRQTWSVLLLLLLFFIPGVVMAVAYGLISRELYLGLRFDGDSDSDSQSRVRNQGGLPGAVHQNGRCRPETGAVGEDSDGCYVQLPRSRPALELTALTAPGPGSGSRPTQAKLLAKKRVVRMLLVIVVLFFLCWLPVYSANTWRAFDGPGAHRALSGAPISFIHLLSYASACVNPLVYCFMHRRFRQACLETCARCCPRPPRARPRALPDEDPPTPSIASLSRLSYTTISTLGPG
Protocol: Binding affinity studies on whole A431-CCK2R cells were performed as previously described. Briefly, 100 μL of cell suspension (5 × 10^6 cells/mL) was added to each well of a 96-well MultiScreen Filter Plate HTS (1 μm glass fiber filter, Merck Millipore, Darmstadt, Germany). Hereafter competitor solution was added with increasing concentrations [0.001−1.000 nM] and after 10 min at RT human [Leu^15]-gastrin I radiolabelled with iodine-125 as described in [16] was added (4.5 × 10^4 cpm) and the plate was maintained under shaking conditions (Compact shaker KS-15 control, 200/min) at ambient temperature. After 1 h each well was washed twice with 200 μL TRIS-buffered saline (pH 7.3), filters were collected and measured in the gamma counter followed by nonlinear curve fitting with Origin 6.1 software (Northampton, MA, USA) to calculate the IC50 values.

[1] = type: physicochemical
Protocol: To determine the distribution of the ^68Ga-radiolabelled conjugates between an organic and aqueous layer aliquots (50 μL) of the tracers (10 μM) were diluted in 450 μL PBS and after adding 500 μL octanol the mixture was vortexed at 1400 rpm (MS 3 basic vortexer, IKA, Staufen, Germany) for 15 min at RT followed by centrifugation for 2 min at 4500 rpm. Subsequently, aliquots (100 μL) of both layers were collected and measured in the gamma counter (Wizard2 3”, Perkin Elmer, Waltham, MA, USA) followed by logD calculation using Excel (n = 3, six replicates).

[2] = system: A431-CCK2R/A431-mock tumour xenografted BALB/c nude mice; experiment: in vivo; settings: mouse
Protocol: (§1) Ex vivo biodistribution studies were conducted using female 8−10 weeks old athymic BALB/c nude mice (Charles River Laboratories, Sulzfeld, Germany). Tumour xenografts were induced by subcutaneous injection of 2 × 10^6 A431-CCK2R cells (receptor positive) in the right and 2 × 10^6 A431-mock cells (receptor negative) in the left flank and tumours were allowed to grow until they had reached a volume of 0.3–0.6 cm^3.To evaluate the biodistribution profile double tumour xenografted BALB/c nude mice (n = 3) were intravenously injected with 1–2 MBq of ^68Ga-labelled peptides (0.1–0.2 nmol). The animals were sacrificed by cervical dislocation after 1 h and 4 h in case of the trimer. The collected samples were measured in the gamma counter and the results were calculated as percentage of injected activity per gram tissue (% IA/g).

in vivo = experiment: in vivo; set-up: species or system BALB/c nude mice; settings: female, BALB/c nude, mouse, iv, total radioactivity
Protocol: as §1

**Q.** With `CCCC[C@H](NC(=O)[C@H](Cc1c[nH]c2ccccc12)NC(=O)CNC(=O)[C@H](Cc1ccc(O)cc1)NC(=O)[C@H](C)NC(=O)[C@@H](CCC(=O)O)NC(=O)CCSC1CC(=O)N(CCC(=O)NC2CCCN(O)C(=O)C=C(C)CCOC(=O)C(NC(=O)CCN3C(=O)CC(SCCC(=O)N[C@H](CCC(=O)O)C(=O)N[C@@H](C)C(=O)N[C@@H](Cc4ccc(O)cc4)C(=O)NCC(=O)N[C@@H](Cc4c[nH]c5ccccc45)C(=O)N[C@@H](CCCC)C(=O)N[C@@H](CC(=O)O)C(=O)N[C@@H](Cc4ccccc4)C(N)=O)C3=O)CCCN(O)C(=O)C=C(C)CCOC(=O)C(NC(=O)CCN3C(=O)CC(SCCC(=O)N[C@H](CCC(=O)O)C(=O)N[C@@H](C)C(=O)N[C@@H](Cc4ccc(O)cc4)C(=O)NCC(=O)N[C@@H](Cc4c[nH]c5ccccc45)C(=O)N[C@@H](CCCC)C(=O)N[C@@H](CC(=O)O)C(=O)N[C@@H](Cc4ccccc4)C(N)=O)C3=O)CCCN(O)C(=O)C=C(C)CCOC2=O)C1=O)C(=O)N[C@@H](CC(=O)O)C(=O)N[C@@H](Cc1ccccc1)C(N)=O` (stereo partly shown) [Trimer-Nle] (I: [Mpa][dE]AYGW[Nle]DF-NH2 / II: [Mpa][dE]AYGW[Nle]DF-NH2 / III: [Mpa][dE]AYGW[Nle]DF-NH2; linker I:1-II:1-III:1 via X1) as the compound, how does the IC50 (CCK2 receptor) read?
**A.** 20.9 ± 1.13 nM

**Q.** And the “Distribution coefficient logD (pH 7.4)” value [1]?
**A.** -1.80 ± 0.16

**Q.** Which logD ([1]; pH 7.4) does the source give for `CCCC[C@H](NC(=O)[C@H](Cc1c[nH]c2ccccc12)NC(=O)CNC(=O)[C@H](Cc1ccc(O)cc1)NC(=O)[C@H](C)NC(=O)[C@@H](CCC(=O)O)NC(=O)CCSC1CC(=O)N(CCC(=O)NC2CCCN(O)C(=O)C=C(C)CCOC(=O)C(NC(=O)CCN3C(=O)CC(SCCC(=O)N[C@H](CCC(=O)O)C(=O)N[C@@H](C)C(=O)N[C@@H](Cc4ccc(O)cc4)C(=O)NCC(=O)N[C@@H](Cc4c[nH]c5ccccc45)C(=O)N[C@@H](CCCC)C(=O)N[C@@H](CC(=O)O)C(=O)N[C@@H](Cc4ccccc4)C(N)=O)C3=O)CCCN(O)C(=O)C=C(C)CCOC(=O)C(NC(C)=O)CCCN(O)C(=O)C=C(C)CCOC2=O)C1=O)C(=O)N[C@@H](CC(=O)O)C(=O)N[C@@H](Cc1ccccc1)C(N)=O` (stereo partly shown) [Dimer-Nle] (I: [Mpa][dE]AYGW[Nle]DF-NH2 / II: [Mpa][dE]AYGW[Nle]DF-NH2; linker I:1-II:1 via X2) here?
**A.** -2.05 ± 0.19

**Q.** And the “Ratio T/O tumour-to-A431-mock” value [2]?
**A.** 8.0 ± 1.8^c

**Q.** And the tissue uptake at 1 h (in vivo; A431-CCK2R tumour uptake)?
**A.** 5 ± 0.79 %ID/g

**Q.** And the tissue uptake at 1 h (in vivo; A431-mock tumour uptake)?
**A.** 0.65 ± 0.14 %ID/g

**Q.** What about the tissue uptake at 1 h (in vivo; Blood uptake) of the same compound?
**A.** 1.4 ± 0.48 %ID/g

**Q.** And the tissue uptake at 1 h (in vivo; Bone uptake)?
**A.** 0.8 ± 0.37 %ID/g

**Q.** And the tissue uptake at 1 h (in vivo; Heart uptake)?
**A.** 0.62 ± 0.12 %ID/g

**Q.** What about the tissue uptake at 1 h (in vivo; Intestine uptake) of the same compound?
**A.** 0.64 ± 0.12 %ID/g

**Q.** What about the tissue uptake at 1 h (in vivo; Kidneys uptake) of the same compound?
**A.** 12.8 ± 0.16 %ID/g

**Q.** And the tissue uptake at 1 h (in vivo; Liver uptake)?
**A.** 3.49 ± 0.94 %ID/g

**Q.** What about the tissue uptake at 1 h (in vivo; Lung uptake) of the same compound?
**A.** 1.54 ± 0.33 %ID/g

**Q.** What about the tissue uptake at 1 h (in vivo; Muscle uptake) of the same compound?
**A.** 0.36 ± 0.12 %ID/g

**Q.** What about the tissue uptake at 1 h (in vivo; Pancreas uptake) of the same compound?
**A.** 0.98 ± 0.28 %ID/g

**Q.** What about the tissue to tissue ratio at 1 h (in vivo; Ratio T/O tumour-to-Blood) of the same compound?
**A.** 4 ± 1.3

**Q.** And the tissue to tissue ratio at 1 h (in vivo; Ratio T/O tumour-to-Bone)?
**A.** 7.6 ± 3.2

**Q.** What about the tissue to tissue ratio at 1 h (in vivo; Ratio T/O tumour-to-Heart) of the same compound?
**A.** 8.2 ± 1.2

**Q.** And the tissue to tissue ratio at 1 h (in vivo; Ratio T/O tumour-to-Intestine)?
**A.** 8.1 ± 1.8

**Q.** What about the tissue to tissue ratio at 1 h (in vivo; Ratio T/O tumour-to-Kidneys) of the same compound?
**A.** 0.39 ± 0.06

**Q.** What about the tissue to tissue ratio at 1 h (in vivo; Ratio T/O tumour-to-Liver) of the same compound?
**A.** 1.5 ± 0.4

**Q.** What about the tissue to tissue ratio at 1 h (in vivo; Ratio T/O tumour-to-Lung) of the same compound?
**A.** 3.3 ± 0.5

**Q.** What about the tissue to tissue ratio at 1 h (in vivo; Ratio T/O tumour-to-Muscle) of the same compound?
**A.** 15.8 ± 5.8

**Q.** What about the tissue to tissue ratio at 1 h (in vivo; Ratio T/O tumour-to-Pancreas) of the same compound?
**A.** 5.4 ± 1.3

**Q.** What about the tissue to tissue ratio at 1 h (in vivo; Ratio T/O tumour-to-Spleen) of the same compound?
**A.** 5.2 ± 0.5

**Q.** And the tissue to tissue ratio at 1 h (in vivo; Ratio T/O tumour-to-Stomach)?
**A.** 2.2 ± 0.3

**Q.** What about the tissue uptake at 1 h (in vivo; Spleen uptake) of the same compound?
**A.** 0.95 ± 0.07 %ID/g

**Q.** And the tissue uptake at 1 h (in vivo; Stomach uptake)?
**A.** 2.25 ± 0.17 %ID/g
